Test results: patent US8067674B2, “Desaturase genes, enzymes encoded thereby, and uses thereof” (Abbott Laboratories, priority 2002, dated 2011)

Test system: fatty acid substrates
Test: Yeast expression of the omega-3 desaturase (SDD17, sdd17 in pYX242) with exogenous fatty acid substrates, FAME/GC analysis
Format: cell-based, Saccharomyces cerevisiae (SC334)
Details: for % Conversion: 24° C.
Text: To determine the substrate specificity and the class of reaction catalyzed by the SDD17-protein, sdd17 was heterologously expressed in a Saccharomyces cerevisiae (SC334). Because S. cerevisiae cannot synthesize fatty acids beyond OA (18:1n-9), it is an ideal system to use to determine enzyme activity on substrates longer than OA because no background enzyme activity will be detected. Suitable fatty acid substrates can be exogenously supplied to the host which are taken up by the cell and acted on by the expressed protein of the transformed sdd17 gene.
Clone pRSP19, which contained the full-length omega-3 desaturase (sdd17) from S. diclina cloned into pYX242, was transformed into Saccharomyces cerevisiae (SC334) using the “Alkali-Cation Yeast Transformation”-brand kit (BIO 101, Vista, Calif.). Transformants were selected for leucine auxotrophy on media lacking leucine (DOB [-Leu]). To detect the specific desaturase activity of these clones, transformants were grown in the presence of 50 μM of each of LA (18:2n-6), GLA (18:3n-6),
DGLA (20:3n-6), AA (20:4n-6), and adrenic acid (22:4n-6). Conversion of these exogenously supplied fatty acid substrates into a product having one additional unsaturation indicates the presence of a specific desaturase activity that is not found in the wild-type S. cerevisiae:
The negative control strain was S. cerevisiae transformed with the pYX242 vector. The experimental cultures and the control cultures were grown simultaneously and analyzed.
The cultures were vigorously agitated (250 rpm) and grown for 48 hours at 24° C. in the presence of 50 μM (final concentration) of the various substrates (see Table 3). The cells were spun down, washed once in distilled water, and the pellets resuspended in methanol; chloroform was added along with tritridecanoin (as an internal standard). These mixtures were incubated for at least an hour at room temperature, or at 4° C. overnight. The chloroform layer was extracted and filtered through a Whatman filter with 1 gm anhydrous sodium sulfate to remove particulate matter and residual water. The organic solvents were evaporated at 40° C. under a stream of nitrogen. The extracted lipids were then converted to fatty acid methyl esters (FAME) for gas chromatography analysis (GC) by adding 2 ml 0.5 N potassium hydroxide in methanol to a closed tube. The samples were heated to 95° C.-100° C. for 30 minutes and cooled to room temperature. Approximately 2 ml 14% borontrifluoride in methanol was added and the heating repeated. After the extracted lipid mixture cooled, 2 ml of water and 1 ml of hexane were added to extract the FAME for analysis by GC. The percent conversion was calculated using the formula: […]
(i.e. 15° C.). Here, 50 μM of exogenous substrate was added to the transformants and the cultures were grown for 48 hours at 15° C. Fatty acid analysis was carried out as described above. The overall uptake of substrate by S. cerevisiae at 15° C. was lower than that seen at 24° C. (compare Table 3 & Table 4). However the percent conversion of substrate to product by the enzyme increased at 15° C. Since the presence of lower concentration of exogenous fatty acid substrate seemed to improve the activity of the enzyme, it is possible that fatty acid substrates at high concentrations may exert a feed-back inhibition on this enzyme. […]

B1: SDD17: omega-3 desaturase of 358 amino acid residues (SEQ ID NO: 26) encoded by sdd17 from Saprolegnia diclina (ATCC 56851) (protein, listed as Saprolegnia diclina)
chain: MTEDKTKVEFPTLTELKHSIPNACFESNLGLSLYYTARAIFNASASAALLYAARSTPFIADNVLLHALVCATYIYVQGVIFWGFFTVGHDCGHSAFSRYHSVNFIIGCIMHSAILTPFESWRVTHRHHHKNTGNIDKDEIFYPHRSVKDLQDVRQWVYTLGGAWFVYLKVGYAPRTMSHFDPWDPLLLRRASAVIVSLGVWAAFFAAYAYLTYSLGFAVMGLYYYAPLFVFASFLVITTFLHHNDEATPWYGDSEWTYVKGNLSSVDRSYGAFVDNLSHHIGTHQVHHLFPIIPHYKLNEATKHFAAAYPHLVRRNDEPIITAFFKTAHLFVNYGAVPETAQIFTLKESAAAAKAKSD
Question: B1 was tested. Which “percent conversion of substrate to product at 15° C. compared with 24° C.” value (15° C. vs 24° C., 50 μM substrate, 48 hours) did it give?
Answer: increased

Question: What about the “% Conversion” value (20:3 n-6 (DGLA) to 20:4 n-3 (ETA) (Delta 17), 48 hours, 50 μM substrate) of the same molecule?
Answer: 5%

Question: What about the “% Conversion” value (20:4 n-6 (AA) to 20:5 n-3 (EPA) (Delta 17), 48 hours, 50 μM substrate) of the same molecule?
Answer: 13.8%

Question: What about the “% Conversion” value (22:4 n-6 (adrenic acid) to 22:5 n-3 (DPA) (Delta 19), 48 hours, 50 μM substrate) of the same molecule?
Answer: 4%

Question: What about the “desaturation of C18 omega-6 fatty acyl substrates to their corresponding omega-3 fatty acids” value (under the conditions tested) of the same molecule?
Answer: did not desaturate
